The results in this text go back to patent US7888089B2, “eNOS mutations useful for gene therapy and therapeutic screening” (Yale University, priority 1999, dated 2011).

One experiment relates to COS cells. The experiment is described as follows: cGMP accumulation in transfected COS cells as bioassay for NO. The note with it: eNOS alone or eNOS with Akt construct. In kind it is cell-based. The source says: (§1) Cell Transfections: The bovine eNOS, human iNOS, rat nNOS cDNAs in pcDNA3 and HA-tagged wild-type Akt, Akt (K179M) or myr-Akt in pCMV6 were generated by standard cloning methods. The myr-nNOS in pcDNA3 was generated by PCR, incorporating a new amino terminus containing the eNOS N-myristoylation consensus site (MGNLKSVG, SEQ ID NO:1) fused in frame to the second amino acid of the nNOS coding sequence. […] Mutation of the putative Akt phosphorylation sites in eNOS were generated using the Quick Change site-directed mutagenesis kit (Stratagene) according to the manufacturers instructions. All mutants were verified by DNA sequencing. COS-7 cells were plated (100 mm dish) and transfected with the NOS (7.5-30 mg) and Akt (1 mg) plasmids using calcium phosphate. To balance all transfections, the expression vector for β-galactosidase cDNA was used. Twenty-four to forty-eight hours after transfection, the expression of appropriate proteins (40-80 mg) were confirmed by Western blot analysis using eNOS mAb (9D10, Zymed), HA mAb (12CA5, Boehringer Mannheim), iNOS pAb (Zymed Laboratories) or nNOS mAb (Zymed Laboratories).
NO release from transfected COS cells: 24-48 hrs after transfection, media was processed for the measurement of nitrite (NO2^−), the stable breakdown product of NO in aqueous solution, by NO specific chemiluminescence as described (Sessa et al., 1995). […]

Experiment [1] concerns Akt. The experiment is described as follows: 32P phosphorylation of eNOS in intact transfected COS cells. In kind it is cell-based. The note with it: intact COS cells, 32P-orthophosphate. As for the experimental part: Phosphorylation studies in vivo and in vitro: For in vivo phosphorylation studies, COS cells were transfected with the cDNAs for wild-type or S635, 1179A eNOS and HA-Akt overnight. 36 hrs after transfection, cells were placed into dialyzed serum replete, phosphate-free Dulbecco's minimum essential medium supplemented with 80 μCi/ml of ^32P orthophosphoric acid for 3 hr. Some cells were pretreated with wortmannin (500 nM) in the phosphate-free media for 1 hr and during the labeling.

Experiment [2] concerns Akt. The experiment can be described thus: In vitro kinase reaction with Akt immunoprecipitated from COS cells. In kind it is biochemical. The note with it: HA-Akt immunoprecipitate, n=3.
The next experiment relates to COS-7 cells. The experiment is described as follows: NO release (NO2−, chemiluminescence) from transfected COS cells. In kind it is cell-based. As to conditions: NOS construct co-transfected with Akt.
From the text: as §1
NO release from transfected COS cells: 24-48 hrs after transfection, media was processed for the measurement of nitrite (NO2^−), the stable breakdown product of NO in aqueous solution, by NO specific chemiluminescence as described (Sessa et al., 1995). Media was deproteinized and samples containing NO2^− were refluxed in glacial acetic acid containing sodium iodide. […] In all experiments, NO2^− release was inhibitable by a NOS inhibitor. In addition, NO2^−-release from cells transfected with the β-galactosidase cDNA was subtracted to control for background levels of NO2^− found in serum or media. In some experiments, cGMP accumulation in COS was used as a bioassay for the production of NO as described.

The nature of experiment [3]: DCIP reduction by purified eNOS. The note with it: FIG. 6B. In kind it is biochemical. As for the experimental part: Assays for Reductase Activity—NADPH-cytochrome c reductase activity and 2,6-dichlorophenolindophenol (DCIP) reduction were measured as a change in absorbance at 550 nm as described previously by Martasek et al. (1999) and Masters et al. (1967) using an extinction coefficient of 0.021 μM^−1 cm^−1 for both cytochrome c and DCIP. Briefly, a reaction mixture (1 ml) contained either cytochrome c (90 μM); DCIP (36 μM), HEPES buffer (50 mM) at pH 7.6, NaCl (250 mM), NADPH (100 μM), calmodulin (120 nM), and CaCl2 (200 μM); or other substances as indicated. The reaction was monitored for 60 s (at 23° C.) after the addition of eNOS. When inactivation of reductase activity was determined by the addition of EGTA (200-800 μM), chelator was added 1 min after initiation of the reaction and monitored for an additional 1 min. The reaction contained HEPES buffer (50 mM) at pH 7.6, CaM (120 nM), and CaCl2 (200 μM) and was initiated with NADPH (100 μM). No NaCl was added in experiments that examined EGTA inactivation of eNOS to mimic the conditions used in the hemoglobin capture experiments. […] Determination of the calcium EC50 for eNOS was performed as described above for the hemoglobin capture assay.

B1: Wild type: Wild type bovine endothelial nitric oxide synthase (eNOS) (protein, UniProt P29473 2-1205, looked up)
Nitric oxide synthase 3: GNLKSVGQEPGPPCGLGLGLGLGLCGKQGPASPAPEPSRAPAPATPHAPDHSPAPNSPTLTRPPEGPKFPRVKNWELGSITYDTLCAQSQQDGPCTPRCCLGSLVLPRKLQTRPSPGPPPAEQLLSQARDFINQYYSSIKRSGSQAHEERLQEVEAEVASTGTYHLRESELVFGAKQAWRNAPRCVGRIQWGKLQVFDARDCSSAQEMFTYICNHIKYATNRGNLRSAITVFPQRAPGRGDFRIWNSQLVRYAGYRQQDGSVRGDPANVEITELCIQHGWTPGNGRFDVLPLLLQAPDEAPELFVLPPELVLEVPLEHPTLEWFAALGLRWYALPAVSNMLLEIGGLEFSAAPFSGWYMSTEIGTRNLCDPHRYNILEDVAVCMDLDTRTTSSLWKDKAAVEINLAVLHSFQLAKVTIVDHHAATVSFMKHLDNEQKARGGCPADWAWIVPPISGSLTPVFHQEMVNYILSPAFRYQPDPWKGSATKGAGITRKKTFKEVANAVKISASLMGTLMAKRVKATILYASETGRAQSYAQQLGRLFRKAFDPRVLCMDEYDVVSLEHEALVLVVTSTFGNGDPPENGESFAAALMEMSGPYNSSPRPEQHKSYKIRFNSVSCSDPLVSSWRRKRKESSNTDSAGALGTLRFCVFGLGSRAYPHFCAFARAVDTRLEELGGERLLQLGQGDELCGQEEAFRGWAKAAFQASCETFCVGEEAKAAAQDIFSPKRSWKRQRYRLSTQAEGLQLLPGLIHVHRRKMFQATVLSVENLQSSKSTRATILVRLDTAGQEGLQYQPGDHIGICPPNRPGLVEALLSRVEDPPPPTESVAVEQLEKGSPGGPPPSWVRDPRLPPCTLRQALTFFLDITSPPSPRLLRLLSTLAEEPSEQQELETLSQDPRRYEEWKWFRCPTLLEVLEQFPSVALPAPLLLTQLPLLQPRYYSVSSAPNAHPGEVHLTVAVLAYRTQDGLGPLHYGVCSTWLSQLKTGDPVPCFIRGAPSFRLPPDPYVPCILVGPGTGIAPFRGFWQERLHDIESKGLQPAPMTLVFGCRCSQLDHLYRDEVQDAQERGVFGRVLTAFSREPDSPKTYVQDILRTELAAEVHRVLCLERGHMFVCGDVTMATSVLQTVQRILATEGDMELDEAGDVIGVLRDQQRYHEDIFGLTLRTQEVTSRIRTQSFSLQERHLRGAVPWAFDPPGPDTPGP
Take B1: the cGMP accumulation in the experiment with COS cells was found to be 5.5±0.8 pmol cGMP/mg protein. Moreover, in the experiment with Akt [1], the “enhancement in phosphorylation on co-expression of Akt relative to non-stimulated cells” value came to 2 fold. In addition, the “phosphorylation of substrate by active Akt” value in the experiment on Akt [2] is given as 115.4±3.8 pmol of ATP/nmol substrate.

B2: S1179D: bovine eNOS with serine 1179 mutated to aspartic acid (protein)
chain: GNLKSVGQEPGPPCGLGLGLGLGLCGKQGPASPAPEPSRAPAPATPHAPDHSPAPNSPTLTRPPEGPKFPRVKNWELGSITYDTLCAQSQQDGPCTPRCCLGSLVLPRKLQTRPSPGPPPAEQLLSQARDFINQYYSSIKRSGSQAHEERLQEVEAEVASTGTYHLRESELVFGAKQAWRNAPRCVGRIQWGKLQVFDARDCSSAQEMFTYICNHIKYATNRGNLRSAITVFPQRAPGRGDFRIWNSQLVRYAGYRQQDGSVRGDPANVEITELCIQHGWTPGNGRFDVLPLLLQAPDEAPELFVLPPELVLEVPLEHPTLEWFAALGLRWYALPAVSNMLLEIGGLEFSAAPFSGWYMSTEIGTRNLCDPHRYNILEDVAVCMDLDTRTTSSLWKDKAAVEINLAVLHSFQLAKVTIVDHHAATVSFMKHLDNEQKARGGCPADWAWIVPPISGSLTPVFHQEMVNYILSPAFRYQPDPWKGSATKGAGITRKKTFKEVANAVKISASLMGTLMAKRVKATILYASETGRAQSYAQQLGRLFRKAFDPRVLCMDEYDVVSLEHEALVLVVTSTFGNGDPPENGESFAAALMEMSGPYNSSPRPEQHKSYKIRFNSVSCSDPLVSSWRRKRKESSNTDSAGALGTLRFCVFGLGSRAYPHFCAFARAVDTRLEELGGERLLQLGQGDELCGQEEAFRGWAKAAFQASCETFCVGEEAKAAAQDIFSPKRSWKRQRYRLSTQAEGLQLLPGLIHVHRRKMFQATVLSVENLQSSKSTRATILVRLDTAGQEGLQYQPGDHIGICPPNRPGLVEALLSRVEDPPPPTESVAVEQLEKGSPGGPPPSWVRDPRLPPCTLRQALTFFLDITSPPSPRLLRLLSTLAEEPSEQQELETLSQDPRRYEEWKWFRCPTLLEVLEQFPSVALPAPLLLTQLPLLQPRYYSVSSAPNAHPGEVHLTVAVLAYRTQDGLGPLHYGVCSTWLSQLKTGDPVPCFIRGAPSFRLPPDPYVPCILVGPGTGIAPFRGFWQERLHDIESKGLQPAPMTLVFGCRCSQLDHLYRDEVQDAQERGVFGRVLTAFSREPDSPKTYVQDILRTELAAEVHRVLCLERGHMFVCGDVTMATSVLQTVQRILATEGDMELDEAGDVIGVLRDQQRYHEDIFGLTLRTQEVTSRIRTQDFSLQERHLRGAVPWAFDPPGPDTPGP
In the case of B2, the “Akt dependent NO release / activation of NOS construct” value with COS-7 cells is reported as “partially mimics the activation state induced by Akt”. Further, the “DCIP reduction activity compared with wild type eNOS” value in experiment [3] is “significant increase in activity”.
